# According to US20250250357A1:
# Key:
# [1] = molecular target: human MSLN-R3-3 polypeptide (human); assay: ELISA; antibody 1 nM
# [2] = molecular target: human MSLN full-length protein (NCBI: AAH09272.1) on stably transfected CHO-K1 or HEK293T cells (human) (UniProt Q13421); assay: FACS on CHO-K1-hMSLN-2C8 cells; antibody […]
# [3] = molecular target: human MSLN full-length protein (NCBI: AAH09272.1) on stably transfected CHO-K1 or HEK293T cells (human) (UniProt Q13421); assay: FACS on CHO-K1-hMSLN-2C8 cells; antibody 4 nM
# [4] = molecular target: human MSLN full-length protein (NCBI: AAH09272.1) on stably transfected CHO-K1 or HEK293T cells (human) (UniProt Q13421); assay: FACS on CHO-K1-hMSLN-2C8 cells; antibody 20 nM
# [5] = molecular target: human MSLN full-length protein (NCBI: AAH09272.1) on stably transfected CHO-K1 or HEK293T cells (human) (UniProt Q13421); assay: FACS on CHO-K1-hMSLN-2C8 cells; antibody 0.8 nM
# [6] = molecular target: human MSLN full-length protein (NCBI: AAH09272.1) on stably transfected CHO-K1 or HEK293T cells (human) (UniProt Q13421); assay: FACS on CHO-K1-hMSLN-2C8 cells; antibody 100 nM
# [7] = molecular target: human MSLN full-length protein (NCBI: AAH09272.1) on stably transfected CHO-K1 or HEK293T cells (human) (UniProt Q13421); assay: FACS on CHO-K1-hMSLN-2C8 cells; antibody 0.032 nM
# [8] = molecular target: human MSLN full-length protein (NCBI: AAH09272.1) on stably transfected CHO-K1 or HEK293T cells (human) (UniProt Q13421); assay: FACS on CHO-K1-hMSLN-2C8 cells; antibody 0.0064 nM
# [9] = molecular target: human MSLN full-length protein (NCBI: AAH09272.1) on stably transfected CHO-K1 or HEK293T cells (human) (UniProt Q13421); assay: FACS on CHO-K1-hMSLN-2C8 cells; antibody 0.00128 nM
# [10] = molecular target: human MSLN-R3 protein (Met487-Ser606 of NCBI AAH09272.1) expressed on HEK293T-hMSLN-R3 cells (human) (UniProt Q13421); assay: FACS on HEK293T-hMSLN-R3 cells
# [11] = molecular target: monkey MSLN full-length protein (NCBI: XP_028696439.1) on HEK293T cells (monkey); assay: FACS on HEK293T-monkey MSLN cells; antibody […]
# [12] = molecular target: monkey MSLN full-length protein (NCBI: XP_028696439.1) on HEK293T cells (monkey); assay: FACS on HEK293T-monkey MSLN cells; antibody 4 nM
# [13] = molecular target: monkey MSLN full-length protein (NCBI: XP_028696439.1) on HEK293T cells (monkey); assay: FACS on HEK293T-monkey MSLN cells; antibody 20 nM
# [14] = molecular target: monkey MSLN full-length protein (NCBI: XP_028696439.1) on HEK293T cells (monkey); assay: FACS on HEK293T-monkey MSLN cells; antibody 0.8 nM
# [15] = molecular target: monkey MSLN full-length protein (NCBI: XP_028696439.1) on HEK293T cells (monkey); assay: FACS on HEK293T-monkey MSLN cells; antibody 100 nM
# [16] = molecular target: monkey MSLN full-length protein (NCBI: XP_028696439.1) on HEK293T cells (monkey); assay: FACS on HEK293T-monkey MSLN cells; antibody 0.032 nM
# [17] = molecular target: monkey MSLN full-length protein (NCBI: XP_028696439.1) on HEK293T cells (monkey); assay: FACS on HEK293T-monkey MSLN cells; antibody 0.0064 nM
# [18] = molecular target: monkey MSLN full-length protein (NCBI: XP_028696439.1) on HEK293T cells (monkey); assay: FACS on HEK293T-monkey MSLN cells; antibody 0.00128 nM
# [19] = molecular target: human MSLN full-length protein (NCBI: AAH09272.1) on stably transfected CHO-K1 or HEK293T cells (human) (UniProt Q13421); assay: FACS on HEK293T-hMSLN-B8 cells; secondary antibody control 1
# [20] = molecular target: human MSLN full-length protein (NCBI: AAH09272.1) on stably transfected CHO-K1 or HEK293T cells (human) (UniProt Q13421); assay: FACS on CHO-K1-hMSLN-2C5 cells; secondary antibody control 37
# [21] = molecular target: human MSLN full-length protein (NCBI: AAH09272.1) on stably transfected CHO-K1 or HEK293T cells (human) (UniProt Q13421); assay: FACS on CHO-K1-hMSLN-2C8 cells; secondary antibody control 37
# [22] = molecular target: human MSLN full-length protein (NCBI: AAH09272.1) on stably transfected CHO-K1 or HEK293T cells (human) (UniProt Q13421); assay: FACS on HEK293T-hMSLN-2A4 cells; secondary antibody control 1
# [23] = molecular target: human MSLN full-length protein (NCBI: AAH09272.1) on stably transfected CHO-K1 or HEK293T cells (human) (UniProt Q13421); assay: FACS on HEK293T-hMSLN-2A7 cells; secondary antibody control 1
# [24] = molecular target: human MSLN full-length protein (NCBI: AAH09272.1) on stably transfected CHO-K1 or HEK293T cells (human) (UniProt Q13421); assay: FACS on CHO-K1-hMSLN-2D11 cells; secondary antibody control 37
# [25] = molecular target: human MSLN full-length protein (NCBI: AAH09272.1) on stably transfected CHO-K1 or HEK293T cells (human) (UniProt Q13421); assay: FACS on CHO-K1-hMSLN clone 2C8, overlay with secondary antibody only
# [26] = molecular target: human MSLN full-length protein (NCBI: AAH09272.1) on stably transfected CHO-K1 or HEK293T cells (human) (UniProt Q13421); assay: FACS on CHO-K1-hMSLN clone 2C5, overlay with secondary antibody only
# [27] = molecular target: human MSLN full-length protein (NCBI: AAH09272.1) on stably transfected CHO-K1 or HEK293T cells (human) (UniProt Q13421); assay: FACS on CHO-K1-hMSLN clone 2D11, overlay with secondary antibody only
# [28] = molecular target: human MSLN-R3-3 polypeptide (human); assay: ELISA, coated antigen, antibody 1 nM
# [29] = molecular target: human MSLN-R3-3 polypeptide (human); assay: ELISA, coated antigen, antibody 10 nM
# [30] = molecular target: human MSLN-R3-3 polypeptide (human); assay: ELISA, coated antigen, antibody 0.1 nM
# [31] = molecular target: human MSLN-R3-3 polypeptide (human); assay: ELISA, coated antigen, antibody 100 nM
# [32] = molecular target: human MSLN-R3-3 polypeptide (human); assay: ELISA, coated antigen, antibody 0.01 nM
# [33] = molecular target: human MSLN-R3-3 polypeptide (human); assay: ELISA, coated antigen, antibody 0.001 nM
# [34] = molecular target: human MSLN-R3-3 polypeptide (human); assay: ELISA, coated antigen, antibody 0.0001 nM
# [35] = molecular target: human MSLN-R3-3 polypeptide (human); assay: ELISA, coated antigen, no antibody (blank)
# Sequence of human MSLN-R3 protein (Met487-Ser606 of NCBI AAH09272.1) expressed on HEK293T-hMSLN-R3 cells (human) (Q13421 495-614): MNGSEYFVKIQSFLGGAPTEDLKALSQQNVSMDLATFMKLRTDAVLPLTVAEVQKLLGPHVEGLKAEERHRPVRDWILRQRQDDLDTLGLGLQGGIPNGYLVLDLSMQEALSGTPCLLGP
OD450 nm [1],FACS fluorescence intensity [2],FACS fluorescence intensity [3],FACS fluorescence intensity [4],FACS fluorescence intensity [5],FACS fluorescence intensity [6],FACS fluorescence intensity [7],FACS fluorescence intensity [8],FACS fluorescence intensity [9],Binder,further results
0.07,264,2960,6930,767,7860,120,70,63,"Tab107 (YP3, hIgG1) (antibody, V domains shown) VH: QEQLVESGGGLVQPGASLTLTCTASGIDFSRYYMCWVRQAPGKGLEGIACIYIGGSGSTYYASWAKGRFTISKASSTTVTLQMTSLTAADTATYFCARGTNLNYIFRLWGPGTLVTVSS VL: DVVMTQTPSPVSAAVGGTVTIKCQASQSINNGLAWYQQKPGQPPRLLIYSASNLESGVPSRFKGSGSGTEFTLTISDLECDDAATYYCQCIWDGNSYVNAFGGGTEVVVRT",
,,,,,,,,,"S009-F2.47.1 (antibody, human IgG1, kappa, V domains shown) VH: QVQLQQPGAELVKPGASVKLSCKASGYTFTSYWMHWVKQRPGQGLEWIGMIHPNSGSTNYNEKFKSKATLTVDKSSSTAYMQLSSLTSEDSAVYYCARPVVPYWYFDVWGTGTTVTVSS VL: DIVMTQSQKFMSTTVGDRVSITCKASQNVGTAVAWYQQKPGQSPKLLIYSASNRYTGVPDRFTGSGSGTDFTLTISNMQSEDLADYFCQQSSSYPLTFGAGTKLELKR",Maximum mean fluorescence intensity [10]: 4580
,593,9000,15400,2290,15300,206,96,75,"Tab020 (YP223, rabbitIgG1) (antibody, V domains shown) VH: QEQLEESGGDLVQPEGSLTLTCKASGLDFSSSYWICWVRQAPGKGLEWIGCRHTFTANTWSASWVNGRFTISRSTSLGTVDLKMTSLTAADTATYFCARDESNNDGWDFKLWGPGTLVTVSS VL: AYDMTQTPASVSAAVGGTVTIKCQASQSISNYLAWYQQKPGQPPKLLIYQASTLAPGVSSRFKGSGSGTEFTLTISGVECADAATYYCQQGYTSSNVENVFGGGTGVVVGD",FACS fluorescence intensity [11]: 86; FACS fluorescence intensity [12]: 90; FACS fluorescence intensity [13]: 100; FACS fluorescence intensity [14]: 88; FACS fluorescence intensity [15]: 126; FACS fluorescence intensity [16]: 85; FACS fluorescence intensity [17]: 85; FACS fluorescence intensity [18]: 85; Mean fluorescence intensity of cells [19]: 24400; Mean fluorescence intensity of cells [20]: 206000; Mean fluorescence intensity of cells [21]: 234000; Mean fluorescence intensity of cells [22]: 15400; Mean fluorescence intensity of cells [23]: 6580; Mean fluorescence intensity of cells [24]: 218000; percent of cells in the APC-A+ gate [25]: 99.4%; percent of cells in the APC-A+ gate [26]: 100%; percent of cells in the APC-A+ gate [27]: 100%
0.98,270,2780,6270,812,6720,119,77,68,"Tab106 (YP218, hIgG1) (antibody, V domains shown) VH: QQQLEESGGGLVKPEGSLTLTCKASGFDLGFYFYACWVRQAPGKGLEWIACIYTAGSGSTYYASWAKGRFTISKASSTTVTLQMTSLAAADTATYFCARSTANTRSTYYLNLWGPGTLVTVSS VL: DVVMTQTPASVSEPVGGTVTIKCQASQRISSYLSWYQQKPGQRPKLLIFGASTLASGVPSRFKGSGSGTEYTLTISDLECADAATYYCQSYAYFDSNNWHAFGGGTEVVVRT",OD450 [28]: 0.33; OD450 [29]: 1.35; OD450 [30]: 0.08; OD450 [31]: 1.94; OD450 [32]: 0.05; OD450 [33]: 0.05; OD450 [34]: 0.06; OD450 [35]: 0.07
